Test: label from the status in PepcDB records

| Sequence | protein production |
| --- | --- |
| MSKDSNKIIEQSREIGISIIMPLYNVEEVILETLESIHEQTFDSYEVLLIDDGSTDKTIEIVTEYIKDKPRFKLYTQPNGGPASARNHGLRLAIGMYICFVDSDDILPNYSLQLMYDGAISTGAKLITGATKRFNSEGEWFIPMHIQYNIAKPGMKTLLKNPELFYSIGPCAKLYHHSLIDGVFFPENIRYGEDQPFVLHALLQAKDIYTVEKVVYYYRLRDGESQSLTQSVDKDPIRILKSVFQIFDYGEEELKKNNTDYELEHHHHHH | failed |
| MGHHHHHHSHLCTNFFIFTGGPGSGKTAVLNELNTWGYLTVSEVARSIIQKQQADGGDAIHTGNRKAFRDLMLEQSIADYCKMQSEEKIVFFDRGIPDLYGYSKAFCGEASKEVNEAVGRFRYNKTVFIFPPWPEIYENDDERQQDYQEALQTYYAVKEGYFDCGYVLLEVPKCPIKDRANFIFQMISKNG | not failed |
| MFLVNNIRCSNMAEFPYTTVPGKIKPFFQKIQEAGLPSKVTQKWINSIGFTSSNDPSIIPLLKKLGFIDRSGVPTELWARYRDKDLAPKVMAEAIKNAYKELFETYPDAYRKDKEALRNFFASQTGKAENTIEKMIQTFKALCELADFESNSEEYPHNEVVPSREGLTTLMEKQTPKGLTINVNIQLQLPATTDEEVYDKLFRSLKRNLLSE | not failed |
| MPIRVYTKVELALLYAPHLSENAALNNLSRWMRHNKLLMAALEEVGYYKYRHSFTPKEVRLIFRYMGEPGALEHHHHHH | not failed |
| MISVVGAGGKTSLLFWLAELLQASGRRVLITTTTHMFMPTSHWPVVFCRDPAMLPHASLTSPISFCFHSWKANQGKVQGFTPEAIDALVQRPECDVILIEADGSRGMPLKAPDEHEPCIPKSSCCVIAVMGGHTLGAKVSTENVHRWSQFADITGLTPDATLQLSDLVALVRHPQGAFKNVPQGCRRVWFINRFSQCENAIAQSELLQPLQQHDVEAIWLGDIQEHPAIARRFVNLEHHHHHH | not failed |
| PYNKNGFKVGMKLEGVDPEHQSVYCVLTVAEVCGYRIKLHFDGYSDCYDFWVNADALDIHPVGWCEKTGHKLHPPKGYKEEEFNWQTYLKTCKAQAAPKSLFENQNITVIPSGF | not failed |
| MPMGSLQPLATLYLLGMLVASCLGRLSWYDPDFQARLTRSNSKCQGQLEVYLKDGWHMVCSQSWGRSSKQWEDPSQASKVCQRLNCGVPLSLGPFLVTYTPQSSIICYGQLGSFSNCSHSRNDMCHSLGLTCLEPQKTTPPTTRPPPTTTPEPTAPPRLQLVAQSGGQHCAGVVEFYSGSLGGTISYEAQDKTQDLENFLCNNLQCGSFLKHLPETEAGRAQDPGEPREHQPLPIQWKIQNSSCTSLEHCFRKIKPQKSGRVLALLCSGFQPKVQSRLVGGSSICEGTVEVRQGAQWAALCDSSSARSSLRWEEVCREQQCGSVNSYRVLDAGDPTSRGLFCPHQKLSQCHELWERNSYCKKVFVTCQDPNPAGLAAGTVASIILALVLLVVLLVVCGPLAYKKLVKKFRQKKQRQWIGPTGMNQNMSFHRNHTATVRSHAENPTASHVDNEYSQPPRNSRLSAYPALEGVLHRSSMQPDNSSDSDYDLHGAQRL | failed |
| MFRQLKKNLVATLIAAMTIGQVAPAFADSADTLPDMGTSAGSTLSIGQEMQMGDYYVRQLRGSAPLINDPLLTQYINSLGMRLVSHANSVKTPFHFFLINNDEINAFAFFGGNVVLHSALFRYSDNESQLASVMAHEISHVTQRHLARAMEDQQRSAPLTWVGALGSILLAMASPQAGMAALTGTLAGTRQGMISFTQQNEQEADRIGIQVLQRSGFDPQAMPTFLEKLLDQARYSSRPPEILLTHPLPESRLADARNRANQMRPMVVQSSEDFYLAKARTLGMYNSGRNQLTSDLLDEWAKGNVRQQRAAQYGRALQAMEANKYDEARKTLQPLLAAEPGNAWYLDLATDIDLGQNKANEAINRLKNARDLRTNPVLQLNLANAYLQGGQPQEAANILNRYTFNNKDDSNGWDLLAQAEAALNNRDQELAARAEGYALAGRLDQAISLLSSASSQVKLGSLQQARYDARIDQLRQLQERFKPYTKMLEHHHHHH | not failed |
| MDRSYAVFGLGEFGRSVSYELMEIGADVLAVDKNENKITAIADDVTMAISIDALNEMAYEKLGLNNMDGVVVSMSGNLSASIMAIIAAKDAGVPLVIAKASDDTQRTIFKKVGADRVVIPERDGAVRTAHNLVAKNFLDYIELSDKISIIEINVKDEWLHKPLAELNLRSKYGLNVIAIRRNNDLQTDIGPNLTFDKGDTILVVTDKHDLGL | failed |
| MSTPDIGTFTVRPLDPTRDAELLHGWVTHPKSAFWMMQEARLHDVEREYMAIAASEYHDAFLGLLDDEPVFLMEKYDPAHVELVGLYEPEPGDVGMHFLVAPTDTPVHGFTRAVITAVMEHLFADPATRRVVVEPDVGNKAVHALNEAVGFVPEREIQKPEKKALLSFCTREQFAAAVRGAAV | not failed |

Reference: a protein production outcome set (Wang et al. 2014)
